Assay [1] addresses GPIb-mIgG2aFc chimeric protein (N-terminus side region of human glycoprotein Ib, amino acid numbers 1-319, fused to the Fc region of mouse immunoglobulin γ2a) (human (glycoprotein Ib part); mouse (immunoglobulin γ2a Fc part)). Put plainly: Eu-labelled vWF (500 ng/ml) on captured chimeric protein, ristocetin 0 mg/ml, no inhibitor.
Assay [2] has the same target. Briefly: Eu-labelled vWF (500 ng/ml) on captured chimeric protein, ristocetin 1 mg/ml, no inhibitor.
Assay [3] has the same target. Put plainly: Eu-labelled vWF (500 ng/ml) on captured chimeric protein, ristocetin 2 mg/ml, no inhibitor.
Assay [4] shares this target. Briefly: Eu-labelled vWF (500 ng/ml) on captured chimeric protein, ristocetin 0.5 mg/ml, no inhibitor.
The target is the same in assay [5]. Briefly: Eu-labelled vWF (500 ng/ml) on captured chimeric protein, ristocetin 0.25 mg/ml, no inhibitor.
Assay [6] has the same target. Put plainly: Eu-labelled vWF on captured chimeric protein, ristocetin 0 mg/ml, competitor recombinant AS1051 at 20 µg/ml.
Assay [7] shares this target. Briefly: Eu-labelled vWF on captured chimeric protein, ristocetin 1 mg/ml, competitor recombinant AS1051 at 20 µg/ml.
Assay [8] has the same target. Briefly: Eu-labelled vWF on captured chimeric protein, ristocetin 2 mg/ml, competitor recombinant AS1051 at 20 µg/ml.
Assay [9] shares this target. Briefly: Eu-labelled vWF on captured chimeric protein, ristocetin 0.5 mg/ml, competitor recombinant AS1051 at 20 µg/ml.
For assay [10] the target is unchanged. Put plainly: Eu-labelled vWF on captured chimeric protein, ristocetin 0.25 mg/ml, competitor recombinant AS1051 at 20 µg/ml.
For assay [11] the target is unchanged. Briefly: Eu-labelled vWF with botrocetin on captured chimeric protein, in the presence of the competitor AJvW-2 (as the table names it).
Assay [12] has the same target. Briefly: Eu-labelled vWF (500 ng/ml solution) with botrocetin (500 ng/ml) on chimeric protein captured by anti-mouse immunoglobulin antibodies, no inhibitor.
Assay [13] concerns the target T1, human von Willebrand factor (human, UniProt P04275 764-2813).
T1 construct: also called vWF; von Willebrand factor labeled with europium (Eu)
Briefly: Ratio of control count to count with AS1051; Eu-labelled chimeric protein on vWF immobilised with botrocetin. How it is done: The binding of the europium (Eu) labeled chimeric protein and the von Willebrand factor immobilized in the presence of botrocetin prepared as described above was detected as follows. According to the method mentioned in Example 4 <1>, a mixed solution (TBS) containing 2.5 μg/ml of von Willebrand factor and 2.5 μg/ml of botrocetin was added to each well of a 96-well multititer plate (microtitration plate DELFIA, 1244-550, produced by Wallac), immobilized overnight and subjected to washing, blocking and washing to prepare a von Willebrand factor immobilized plate.
Each well of the above plate was added with 25 μl of an assay buffer containing 0.5% BSA (Assay Buffer, Wallac DELFIA 1244-106, produced by Wallac, Composition: 0.5% BSA, 0.05% bovine γ-globulin, 0.01% Tween-40, 20 μM DTPA (diethylenetriamine […] acid), 50 mM Tris-HCl buffered saline (pH 7.8), 0.05% sodium azide) or the recombinant AS1051 (in which Cys81 was replaced with Ala, N. Fukuchiet al., WO 95/08573) at a final concentration of 20 μg/ml as the binding inhibition substance, further added with 25 μl of a solution of europium. […] Then, the amount of europium (Eu) was measured by using a DELFIA Research fluorophotometer (1230 ARCUS Fluorometer, produced by Wallac, measurement time: 1 second). […]

For assay [14], the target named is T1, human von Willebrand factor. Briefly: Ratio of control count to count with inhibitor; Eu-labelled chimeric protein on immobilised vWF, botrocetin in liquid phase. The protocol:
A TBS solution (50 μl) containing human von Willebrand factor (2.5 μg/ml) was added to each well of a 96-well plate, and the von Willebrand factor was immobilized as a solid phase overnight at 4° C. Each well was washed once with TBS (150 μl) and blocked with TBS containing 5% BSA for about 3 hours. Each well of the plate was washed twice with TBS (150 μl), and then added with 25 μl of an assay buffer (Assay Buffer, Wallac DELFIA 1244-106, produced by Wallac, composition was mentioned in Example 4 <2>) or a recombinant AS1051 (in which Cys81 was replaced with Ala) at a final concentration of 20 μg/ml, further added with the assay buffer (25 μl) containing the europium (Eu)-labeled chimeric protein prepared in Example 4 <2> (100 ng/ml) and botrocetin (500 ng/ml), and left stand at room temperature for 3 hours. Each well of the plate was washed 5 times with TBS ([…]) containing 0.05% Tween-20, then added with 100 μl of a fluorescence enhancement buffer (Enhancement solution, 1244-104, produced by Wallac, composition was mentioned in Example 4 <2>), and shaken for 1 minute. Then, the amount of europium (Eu) was measured by using a 1420 ARVO multi-label counter (produced by Wallac, measurement time: 1 second). The measured values (with no addition of sample or addition of the inhibition sample) and CV value (deviation, %) are shown in Table 2.

For assay [15] the target is unchanged. Put plainly: ELISA: GPIb-mIgGlFc culture supernatant on vWF immobilised with botrocetin, detected with biotinylated anti-mouse IgG-Fc antibodies. How it is done: Immobilization of a mixed solution of von Willebrand factor and botrocetin on a 96-well multititer plate was attained as follows. First, a physiological saline solution of von Willebrand factor (250 μg/ml) and a physiological saline solution of botrocetin (500 μg/ml), which were prepared in a conventional manner, were appropriately diluted, and mixed at the concentration ratios shown in FIG. 2. Then, 50 μl of each mixture was added to each well of a 96-well multititer plate (Maxisorp, produced by Nunc). The plate was left stand overnight at 4° C., and then each well was washed once with a physiological Tris buffer (150 μl, 20 mM Tris-HCl (pH 7.4), 0.15 M sodium chloride; Tris buffered saline, referred to as “TBS” hereinafter). Then, each well was added with 100 μl of TBS containing 10% BSA (bovine serum albumin), left stand for about 3 hours, and washed 3 times with TBS to obtain a von Willebrand factor immobilized plate. […]
On the technique in general: In an ELISA, binding on a coated surface is turned into a signal by an enzyme label.

As for “human von Willebrand factor (from UniProt P04275 764-2813) (ligand)”, the Binding amount (count) in assay [1] came to 2820 counts; in assay [2], 13300 counts; in assay [3] it was 46200 counts; in [4] it was 3660 counts; in assay [5], 3010 counts. In addition, the Binding amount in the presence of inhibition substance (count) came to 3250 counts in [6]; 3020 counts in assay [7]; 6880 counts in assay [8]; 1850 counts in assay [9]; 3080 counts in assay [10]. Also, the Average value of count with addition of AJvW-2 (10 µg/ml) in [11] turned out to be 2340 counts. Also, in [12], the Average value of count in control was 37300 counts.

B1: GPIb-mIgG2aFc chimeric protein (N-terminus side region of human glycoprotein Ib, amino acid numbers 1-319, fused to the Fc region of mouse immunoglobulin γ2a) (Fc fusion)
chain: HPICEVSKVASHLEVNCDKRNLTALPPDLPKDTTILHLSENLLYTFSLATLMPYTRLTQLNLDRCELTKLQVDGTLPVLGTLDLSHNQLQSLPLLGQTLPALTVLDVSFNRLTSLPLGALRGLGELQELYLKGNELKTLPPGLLTPTPKLEKLSLANNNLTELPAGLLNGLENLDTLLLQENSLYTIPKGFFGSHLLPFAFLHGNPWLCNCEILYFRRWLQDNAENVYVWKQGVDVKAMTSNVASVQCDNSDKFPVYKYPGKGCPTLGDEGDTDLYDYYPEEDTEGDKVRATRTVVKFPTKAHTTPWGLFYSWSTASLDEPRGPTIKPCPPCKCPAPNLLGGPSVFIFPPKIKDVLMISLSPIVTCVVVDVSEDDPDVQISWFVNNVEVHTAQTQTHREDYNSTLRVVSALPIQHQDWMSGKEFKCKVNNKDLPAPIERTISKPKGSVRAPQVYVLPPPEEEMTKKQVTLTCMVTDFMPEDIYVEWTNNGKTELNYKNTEPVLDSDGSYFMYSKLRVEKKNWVERNSYSCSVVHEGLHNHHTTKSFSRTPGK
notes: Purified on Protein A from CHOK1 culture supernatant; also called europium (Eu) labeled chimeric protein
In the case of B1, the S/N ratio in [13] was 28.5; in assay [14], 35.

B2: GPIb-mIgGlFc chimeric protein (N-terminal region of human glycoprotein Ibα chain fused to the Fc region of mouse immunoglobulin γ1) (Fc fusion)
chain: HPICEVSKVASHLEVNCDKRNLTALPPDLPKDTTILHLSENLLYTFSLATLMPYTRLTQLNLDRCELTKLQVDGTLPVLGTLDLSHNQLQSLPLLGQTLPALTVLDVSFNRLTSLPLGALRGLGELQELYLKGNELKTLPPGLLTPTPKLEKLSLANNNLTELPAGLLNGLENLDTLLLQENSLYTIPKGFFGSHLLPFAFLHGNPWLCNCEILYFRRWLQDNAENVYVWKQGVDVKAMTSNVASVQCDNSDKFPVYKYPGKGCPTLGDEGDTDLYDYYPEEDTEGDKVRATRTVVKFPTKAHTTPWGLFYSWSTASLDVPRDCGCKPCICTVPEVSSVFIFPPKPKDVLTITLTPKVTCVVVDISKDDPEVQFSWFVDDVEVHTAQTQPREEQFNSTFRSVSELPIMHQDWLNGKEFKCRVNSAAFPAPIEKTISKTKGRPKAPQVYTIPPPKEQMAKDKVSLTCMITDFFPEDITVEWQWNGQPAENYKNTQPIMDTDGSYFVYSKLNVQKSNWEAGNTFTCSVLHEGLHNHHTEKSLSHSPGK
notes: Used as serum-free culture supernatant of transfected CHOdhfr- cells, diluted 8-fold, not purified; also called GPIb-mIgG1Fc; GPIbFcFH
With B2, the binding result in [15] is reported as “binds”.

These data come from patent publication US20040229288A1 (AJINOMOTO, published 2004).
